Experimental data: patent US20090081191A1 (MICROMET, published 2009)

T1: recombinant soluble human 17-1A-antigen (human, UniProt P16422 24-265)
T1 construct: extracellular domain; also called s17-1A; soluble 17-1A-antigen
T1 sequence (looked up): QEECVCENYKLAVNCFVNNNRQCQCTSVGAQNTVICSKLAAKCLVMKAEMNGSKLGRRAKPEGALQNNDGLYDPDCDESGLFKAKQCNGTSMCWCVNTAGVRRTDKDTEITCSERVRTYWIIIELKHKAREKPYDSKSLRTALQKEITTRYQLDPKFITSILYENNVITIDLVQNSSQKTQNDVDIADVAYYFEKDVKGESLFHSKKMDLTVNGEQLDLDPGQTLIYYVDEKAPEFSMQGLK


What was measured:
[1] = molecular target: T1, recombinant soluble human 17-1A-antigen; test: SPR (BIACORE 2000), s17-1A immobilized on CM5, 2. set
Method: Surface plasmon resonance measurement was performed using the BIACORE 2000 device (Biacore AB, Freiburg, Freiburg, Germany). Immobilization of recombinant soluble 17-1A-antigen in each flow cell and analysis of the interaction was carried out with an automatic method in BIACORE 2000. The antigen was covalently coupled to sensor chip CM5 via primary amine groups. After activation of the carboxylated dextran matrix of CM5 sensor chip with a single injection of […] of 0.1 M N-hydroxisuccinimide/0.4 M N-ethyl-N′-(3-dimethylaminopropyl)-carbodiimide (NHS/EDC9) through all four flow cells, flow cells 1,2,3 and 4 were successively included into the flow path during injection of s17-1A-antigen (60 μg/ml in 10 mM sodium acetate, pH 4.7). Different contact times of 17-1A to the activated surface lead to approximately 2500 response units (RU9 in flow cell 1, 14000 RU in flow cell 2, 780 RU in flow cell 3 and 290 RU in flow cell 4). Excess activated esters were blocked by injection of 85 μl 1 M ethanolamine pH 5 over all four flow cells. Binding experiments were performed at 25° C. in buffer of pH 7.4 containing 10 mM Hepes, 150 mM NaCl, 3 mM EDTA and 0.005% surfactant P20. The binding kinetics of antibodies to immobilized recombinant 17-1A were determined by injecting antibody concentrations ranging from 0.5 to […]. The sensor chip was regenerated between each run with 100 mM Glycin, 500 mM NaCl, 0.005% Tween pH3. The association and dissociation rate constants, Kon and Koff were analysed using BIA-evaluation software from Biacore AB as described (Karlsson, (1991) J Immunol Meth 145: 229-240).
Two sets of affinity determinations were carried out (1. set: M79, H79, D7.2, Panorex; 2. set: Panorex, HD70); the murine Panorex was also included in set 2 as internal reference.

[2] = molecular target: recombinant soluble human 17-1A-antigen (human) (UniProt P16422); test: SPR (BIACORE 2000), s17-1A immobilized on CM5, 1. set
[3] = molecular target: recombinant soluble human 17-1A-antigen (human) (UniProt P16422); test: SPR (BIACORE 2000), s17-1A immobilized on CM5, 2. set

Kd [1]	koff [1]	kon [1]	Kd [2]	koff [2]	kon [2]	Kd [3]	koff [3]	kon [3]	Binder
390 nM	0.035 s⁻¹	90000 M⁻¹ s⁻¹	–	–	–	–	–	–	HD70 (VD4.5huIgG1-k5.1) (antibody, V domains shown, Complete human IgG1 antibody produced in CHO cells; also called human HD70; not shown: human IgG1 heavy chain constant region) VH: EVQLLESGGGVVQPGRSLRLSCAASGFTFSSYGMHWVRQAPGKGLEWVAVISYDGSNKYYADSVKGRFTISRDNSKNTLYLQMNSLRAEDTAVYYCAKDMGWGSGWRPYYYYGMDVWGQGTTVTVSS VL: ELQMTQSPSSLSASVGDRVTITCRASQSISSYLNWYQQKPGQPPKLLIYWASTRESGVPDRFSGSESGTNYTLTISSLQPEDFATYFCQQSDSLPITFGQGTRLDIQ
–	–	–	200 nM	0.022 s⁻¹	110000 M⁻¹ s⁻¹	270 nM	0.027 s⁻¹	100000 M⁻¹ s⁻¹	murine Panorex (antibody, INN chains, looked up, V domains shown) VH: QVQLQQSGAELVRPGTSVKVSCKASGYAFTNYLIEWVKQRPGQGLEWIGVINPGSGGTNYNEKFKGKATLTADKSSSTAYMQLSSLTSDDSAVYFCARDGPWFAYWGQGTLVTVSA VL: NIVMTQSPKSMSMSVGERVTLTCKASENVVTYVSWYQQKPEQSPKLLIYGASNRYTGVPDRFTGSGSATDFTLTISSVQAEDLADYHCGQGYSYPYTFGGGTKLEIK
